From paper PMC3999280

Target: LdtRLas ('Candidatus Liberibacter asiaticus', UniProt A0ABN4AZS1 1-171)
Assay: competition
Conditions: protein: recombinant; tags: N-terminal His6 removed by TEV; chain copies: 2; label: none; blunt

B1: CD-3 (dsDNA)
DNA 1: TCTTCTAATATTCCTTGTATTTTAATTATGTTCGAATTTTATTTT
DNA 2: AAAATAAAATTCGAACATAATTAAAATACAAGGAATATTAGAAGA
binding result: binds
